target: T1, APBA1_2, Q02410; assay: holdup assay; parameters: key: below the threshold = too weak to quantify, mostly under pKd 3.1 to 4; conditions: plain residues with an end cap or a label only (N-terminal biotin on a linker: ttds)
T1 sequence (Q02410 742-832, limits assumed, looked up): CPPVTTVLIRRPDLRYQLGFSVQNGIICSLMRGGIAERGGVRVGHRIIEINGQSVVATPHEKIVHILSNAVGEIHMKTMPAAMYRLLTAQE

Binder | pKd
FHPLGADSQV [SLC2A1, P11166] | below the threshold
VDFPPKESSL [ACVR2A, P27037] | 3.33

target: T2, APBA2_1, Q99767; assay: holdup assay; parameters: key: below the threshold = too weak to quantify, mostly under pKd 3.1 to 4; conditions: plain residues with an end cap or a label only (N-terminal biotin on a linker: ttds)
T2 sequence (Q99767 563-664, limits assumed, looked up): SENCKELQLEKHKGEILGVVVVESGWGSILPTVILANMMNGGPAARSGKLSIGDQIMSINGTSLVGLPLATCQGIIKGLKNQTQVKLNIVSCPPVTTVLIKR

Binder | pKd
FHPLGADSQV [SLC2A1, P11166] | below the threshold
VDFPPKESSL [ACVR2A, P27037] | below the threshold

target: CASK, O14936; assay: holdup assay; parameters: key: below the threshold = too weak to quantify, mostly under pKd 3.1 to 4; conditions: plain residues with an end cap or a label only (N-terminal biotin on a linker: ttds)
Sequence (O14936 487-570): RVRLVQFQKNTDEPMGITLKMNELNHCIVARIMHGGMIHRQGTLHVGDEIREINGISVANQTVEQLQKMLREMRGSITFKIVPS

Binder | pKd
FHPLGADSQV [SLC2A1, P11166] | below the threshold
VDFPPKESSL [ACVR2A, P27037] | below the threshold

target: DLG1_3, Q12959; assay: holdup assay; parameters: key: below the threshold = too weak to quantify, mostly under pKd 3.1 to 4; conditions: plain residues with an end cap or a label only (N-terminal biotin on a linker: ttds)
Sequence (Q12959 457-571): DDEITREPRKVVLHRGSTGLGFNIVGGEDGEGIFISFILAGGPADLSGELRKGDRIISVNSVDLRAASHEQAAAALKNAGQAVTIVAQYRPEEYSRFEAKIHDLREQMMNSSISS

Binder | pKd
FHPLGADSQV [SLC2A1, P11166] | below the threshold
VDFPPKESSL [ACVR2A, P27037] | 4.11

target: T3, DLG3_3, Q92796; assay: holdup assay; parameters: key: below the threshold = too weak to quantify, mostly under pKd 3.1 to 4; conditions: plain residues with an end cap or a label only (N-terminal biotin on a linker: ttds)
T3 sequence (Q92796 374-475, limits assumed, looked up): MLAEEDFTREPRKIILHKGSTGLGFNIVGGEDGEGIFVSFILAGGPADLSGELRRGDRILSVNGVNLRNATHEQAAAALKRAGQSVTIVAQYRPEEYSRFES

Binder | pKd
FHPLGADSQV [SLC2A1, P11166] | below the threshold
VDFPPKESSL [ACVR2A, P27037] | below the threshold

target: DLG4_3, P78352; assay: holdup assay; parameters: key: below the threshold = too weak to quantify, mostly under pKd 3.1 to 4; conditions: plain residues with an end cap or a label only (N-terminal biotin on a linker: ttds)
Sequence (P78352 306-403): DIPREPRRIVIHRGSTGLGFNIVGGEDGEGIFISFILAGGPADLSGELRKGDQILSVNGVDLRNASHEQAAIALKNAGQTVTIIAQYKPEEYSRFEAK

Binder | pKd
FHPLGADSQV [SLC2A1, P11166] | below the threshold
VDFPPKESSL [ACVR2A, P27037] | 3.71

target: T4, DVL3, Q92997; assay: holdup assay; parameters: key: below the threshold = too weak to quantify, mostly under pKd 3.1 to 4; conditions: plain residues with an end cap or a label only (N-terminal biotin on a linker: ttds)
T4 sequence (Q92997 244-331, limits assumed, looked up): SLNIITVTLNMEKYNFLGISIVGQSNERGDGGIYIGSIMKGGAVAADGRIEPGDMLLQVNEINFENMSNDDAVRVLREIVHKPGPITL

Binder | pKd
FHPLGADSQV [SLC2A1, P11166] | below the threshold
VDFPPKESSL [ACVR2A, P27037] | below the threshold

target: T5, FRMPD1, Q5SYB0; assay: holdup assay; parameters: key: below the threshold = too weak to quantify, mostly under pKd 3.1 to 4; conditions: plain residues with an end cap or a label only (N-terminal biotin on a linker: ttds)
T5 sequence (Q5SYB0 52-145, limits assumed, looked up): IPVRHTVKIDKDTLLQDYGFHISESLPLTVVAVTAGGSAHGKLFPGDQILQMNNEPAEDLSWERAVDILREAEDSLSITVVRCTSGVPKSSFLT

Binder | pKd
FHPLGADSQV [SLC2A1, P11166] | below the threshold
VDFPPKESSL [ACVR2A, P27037] | below the threshold

target: FRMPD2_1, Q68DX3; assay: holdup assay; parameters: key: below the threshold = too weak to quantify, mostly under pKd 3.1 to 4; conditions: plain residues with an end cap or a label only (N-terminal biotin on a linker: ttds)
Sequence (Q68DX3 770-861): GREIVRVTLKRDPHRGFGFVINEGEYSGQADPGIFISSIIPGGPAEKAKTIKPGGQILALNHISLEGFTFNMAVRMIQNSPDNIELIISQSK

Binder | pKd
FHPLGADSQV [SLC2A1, P11166] | below the threshold
VDFPPKESSL [ACVR2A, P27037] | 3.82

target: FRMPD2_2, Q68DX3; assay: holdup assay; parameters: key: below the threshold = too weak to quantify, mostly under pKd 3.1 to 4; conditions: plain residues with an end cap or a label only (N-terminal biotin on a linker: ttds)
Sequence (Q68DX3 944-1038): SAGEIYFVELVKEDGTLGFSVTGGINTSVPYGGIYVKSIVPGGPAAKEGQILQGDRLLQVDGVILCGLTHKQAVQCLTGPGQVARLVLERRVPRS

Binder | pKd
FHPLGADSQV [SLC2A1, P11166] | below the threshold
VDFPPKESSL [ACVR2A, P27037] | below the threshold

target: FRMPD2_3, Q68DX3; assay: holdup assay; parameters: key: below the threshold = too weak to quantify, mostly under pKd 3.1 to 4; conditions: plain residues with an end cap or a label only (N-terminal biotin on a linker: ttds)
Sequence (Q68DX3 1073-1166): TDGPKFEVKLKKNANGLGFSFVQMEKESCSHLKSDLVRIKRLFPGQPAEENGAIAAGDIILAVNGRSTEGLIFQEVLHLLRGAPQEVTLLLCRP

Binder | pKd
FHPLGADSQV [SLC2A1, P11166] | below the threshold
VDFPPKESSL [ACVR2A, P27037] | below the threshold

target: GOPC, Q9HD26; assay: holdup assay; parameters: key: below the threshold = too weak to quantify, mostly under pKd 3.1 to 4; conditions: plain residues with an end cap or a label only (N-terminal biotin on a linker: ttds)

Binder | pKd
FHPLGADSQV [SLC2A1, P11166] | below the threshold
VDFPPKESSL [ACVR2A, P27037] | 3.45

target: GORASP1, Q9BQQ3; assay: holdup assay; parameters: key: below the threshold = too weak to quantify, mostly under pKd 3.1 to 4; conditions: plain residues with an end cap or a label only (N-terminal biotin on a linker: ttds)
Sequence (Q9BQQ3 1-208): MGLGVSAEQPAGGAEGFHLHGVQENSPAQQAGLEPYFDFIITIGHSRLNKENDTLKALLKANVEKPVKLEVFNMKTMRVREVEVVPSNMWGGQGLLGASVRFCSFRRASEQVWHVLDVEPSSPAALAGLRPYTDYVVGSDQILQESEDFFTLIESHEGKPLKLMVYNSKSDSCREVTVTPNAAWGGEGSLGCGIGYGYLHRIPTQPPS

Binder | pKd
FHPLGADSQV [SLC2A1, P11166] | below the threshold
VDFPPKESSL [ACVR2A, P27037] | below the threshold

target: T6, GRIP1_7, Q9Y3R0; assay: holdup assay; parameters: key: below the threshold = too weak to quantify, mostly under pKd 3.1 to 4; conditions: plain residues with an end cap or a label only (N-terminal biotin on a linker: ttds)
T6 sequence (Q9Y3R0 999-1096, limits assumed, looked up): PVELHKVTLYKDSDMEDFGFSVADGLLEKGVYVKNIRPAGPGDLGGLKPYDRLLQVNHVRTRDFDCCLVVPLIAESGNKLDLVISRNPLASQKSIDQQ

Binder | pKd
FHPLGADSQV [SLC2A1, P11166] | 3.55
VDFPPKESSL [ACVR2A, P27037] | 3.47

target: Inadl_1, Q8NI35; assay: holdup assay; parameters: key: below the threshold = too weak to quantify, mostly under pKd 3.1 to 4; conditions: plain residues with an end cap or a label only (N-terminal biotin on a linker: ttds)
Sequence (Q8NI35 113-229): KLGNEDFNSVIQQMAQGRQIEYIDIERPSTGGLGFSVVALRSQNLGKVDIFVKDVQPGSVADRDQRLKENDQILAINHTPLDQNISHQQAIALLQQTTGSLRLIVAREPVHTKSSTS

Binder | pKd
FHPLGADSQV [SLC2A1, P11166] | 3.49
VDFPPKESSL [ACVR2A, P27037] | below the threshold

target: Inadl_5, Q8NI35; assay: holdup assay; parameters: key: below the threshold = too weak to quantify, mostly under pKd 3.1 to 4; conditions: plain residues with an end cap or a label only (N-terminal biotin on a linker: ttds)
Sequence (Q8NI35 673-780): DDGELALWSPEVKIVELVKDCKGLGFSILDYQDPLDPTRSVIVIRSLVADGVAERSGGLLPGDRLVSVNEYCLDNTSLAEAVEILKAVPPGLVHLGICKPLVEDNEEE

Binder | pKd
FHPLGADSQV [SLC2A1, P11166] | below the threshold
VDFPPKESSL [ACVR2A, P27037] | below the threshold

target: LAP2, Q96RT1; assay: holdup assay; parameters: key: below the threshold = too weak to quantify, mostly under pKd 3.1 to 4; conditions: plain residues with an end cap or a label only (N-terminal biotin on a linker: ttds)
Sequence (Q96RT1 other isoform, or with tags, fused parts or gaps): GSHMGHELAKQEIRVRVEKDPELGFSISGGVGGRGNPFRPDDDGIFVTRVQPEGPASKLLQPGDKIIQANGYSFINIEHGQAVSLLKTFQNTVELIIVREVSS

Binder | pKd
FHPLGADSQV [SLC2A1, P11166] | 3.48
VDFPPKESSL [ACVR2A, P27037] | below the threshold

target: T7, LIN7C, Q9NUP9; assay: holdup assay; parameters: key: below the threshold = too weak to quantify, mostly under pKd 3.1 to 4; conditions: plain residues with an end cap or a label only (N-terminal biotin on a linker: ttds)
T7 sequence (Q9NUP9 88-185, limits assumed, looked up): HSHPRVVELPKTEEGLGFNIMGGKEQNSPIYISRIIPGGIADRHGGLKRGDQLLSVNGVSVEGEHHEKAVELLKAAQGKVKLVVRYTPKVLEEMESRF

Binder | pKd
FHPLGADSQV [SLC2A1, P11166] | below the threshold
VDFPPKESSL [ACVR2A, P27037] | 3.73

target: LNX1_3, Q8TBB1; assay: holdup assay; parameters: key: below the threshold = too weak to quantify, mostly under pKd 3.1 to 4; conditions: plain residues with an end cap or a label only (N-terminal biotin on a linker: ttds)
Sequence (Q8TBB1 500-596): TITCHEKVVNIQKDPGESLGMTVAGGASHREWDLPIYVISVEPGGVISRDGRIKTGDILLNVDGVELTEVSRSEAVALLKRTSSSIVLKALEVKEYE

Binder | pKd
FHPLGADSQV [SLC2A1, P11166] | below the threshold
VDFPPKESSL [ACVR2A, P27037] | below the threshold

target: MAGI2_4, Q86UL8; assay: holdup assay; parameters: key: below the threshold = too weak to quantify, mostly under pKd 3.1 to 4; conditions: plain residues with an end cap or a label only (N-terminal biotin on a linker: ttds)
Sequence (Q86UL8 772-865): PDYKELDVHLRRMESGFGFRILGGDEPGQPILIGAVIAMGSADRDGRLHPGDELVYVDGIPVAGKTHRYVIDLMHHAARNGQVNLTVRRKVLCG

Binder | pKd
FHPLGADSQV [SLC2A1, P11166] | below the threshold
VDFPPKESSL [ACVR2A, P27037] | below the threshold

target: MAGI2_6, Q86UL8; assay: holdup assay; parameters: key: below the threshold = too weak to quantify, mostly under pKd 3.1 to 4; conditions: plain residues with an end cap or a label only (N-terminal biotin on a linker: ttds)
Sequence (Q86UL8 1141-1229): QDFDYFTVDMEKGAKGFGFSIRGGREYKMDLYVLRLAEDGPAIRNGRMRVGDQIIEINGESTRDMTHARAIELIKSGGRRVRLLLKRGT

Binder | pKd
FHPLGADSQV [SLC2A1, P11166] | 3.99
VDFPPKESSL [ACVR2A, P27037] | 3.69

target: T8, MPDZ_5, O75970; assay: holdup assay; parameters: key: below the threshold = too weak to quantify, mostly under pKd 3.1 to 4; conditions: plain residues with an end cap or a label only (N-terminal biotin on a linker: ttds)
T8 sequence (O75970 695-796, limits assumed, looked up): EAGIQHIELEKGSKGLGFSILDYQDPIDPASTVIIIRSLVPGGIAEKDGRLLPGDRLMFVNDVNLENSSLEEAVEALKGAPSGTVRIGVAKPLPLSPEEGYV

Binder | pKd
FHPLGADSQV [SLC2A1, P11166] | below the threshold
VDFPPKESSL [ACVR2A, P27037] | below the threshold

target: NOS1, P29475; assay: holdup assay; parameters: key: below the threshold = too weak to quantify, mostly under pKd 3.1 to 4; conditions: plain residues with an end cap or a label only (N-terminal biotin on a linker: ttds)
Sequence (P29475 9-101): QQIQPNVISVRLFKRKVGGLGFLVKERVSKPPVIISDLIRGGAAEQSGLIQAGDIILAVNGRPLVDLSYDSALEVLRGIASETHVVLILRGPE

Binder | pKd
FHPLGADSQV [SLC2A1, P11166] | 3.49
VDFPPKESSL [ACVR2A, P27037] | below the threshold

target: T9, PDZD7_3, Q9H5P4; assay: holdup assay; parameters: key: below the threshold = too weak to quantify, mostly under pKd 3.1 to 4; conditions: plain residues with an end cap or a label only (N-terminal biotin on a linker: ttds)
T9 sequence (Q9H5P4 857-944, limits assumed, looked up): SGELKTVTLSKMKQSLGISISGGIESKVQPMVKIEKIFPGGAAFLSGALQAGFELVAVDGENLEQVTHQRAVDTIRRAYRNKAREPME

Binder | pKd
FHPLGADSQV [SLC2A1, P11166] | below the threshold
VDFPPKESSL [ACVR2A, P27037] | 3.61

target: SCRIB_2, Q14160; assay: holdup assay; parameters: key: below the threshold = too weak to quantify, mostly under pKd 3.1 to 4; conditions: plain residues with an end cap or a label only (N-terminal biotin on a linker: ttds)
Sequence (Q14160 857-960): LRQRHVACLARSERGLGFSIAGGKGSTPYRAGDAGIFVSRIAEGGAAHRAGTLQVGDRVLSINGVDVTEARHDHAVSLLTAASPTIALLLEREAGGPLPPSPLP

Binder | pKd
FHPLGADSQV [SLC2A1, P11166] | below the threshold
VDFPPKESSL [ACVR2A, P27037] | 3.48

target: T10, SHANK1, Q9Y566; assay: holdup assay; parameters: key: below the threshold = too weak to quantify, mostly under pKd 3.1 to 4; conditions: plain residues with an end cap or a label only (N-terminal biotin on a linker: ttds)
T10 sequence (Q9Y566 658-767, limits assumed, looked up): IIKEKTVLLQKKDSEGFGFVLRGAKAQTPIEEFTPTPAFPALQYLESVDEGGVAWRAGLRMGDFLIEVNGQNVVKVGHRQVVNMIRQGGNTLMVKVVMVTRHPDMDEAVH

Binder | pKd
FHPLGADSQV [SLC2A1, P11166] | below the threshold
VDFPPKESSL [ACVR2A, P27037] | below the threshold

target: T11, SNTB1, Q13884; assay: holdup assay; parameters: key: below the threshold = too weak to quantify, mostly under pKd 3.1 to 4; conditions: plain residues with an end cap or a label only (N-terminal biotin on a linker: ttds)
T11 sequence (Q13884 107-205, limits assumed, looked up): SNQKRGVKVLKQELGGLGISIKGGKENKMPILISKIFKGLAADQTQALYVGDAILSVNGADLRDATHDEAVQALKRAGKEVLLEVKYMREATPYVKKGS

Binder | pKd
FHPLGADSQV [SLC2A1, P11166] | 3.64
VDFPPKESSL [ACVR2A, P27037] | 4.41

From PMC9482650, “Quantitative fragmentomics allow affinity mapping of interactomes” (Nature Communications, 2022)
